2 molecules from article PMC11960969, “Mdga2 deficiency leads to an aberrant activation of BDNF/TrkB signaling that underlies autism-relevant synaptic and behavioral changes in mice” (PLOS Biology, 2025) can be followed below.

For this test, the system named is TrkB (TrkB-Flag). The test can be described thus: Co-IP of MDGA2 and its truncations with TrkB-Flag in HEK293T cells. It is filed as binding, human. To be noted: HEK293T cells co-transfected with TrkB-Flag and GFP-tagged MDGA2 constructs. Here is the method:
Fig 3 MDGA2 interacts with TrkB and suppresses TrkB activity. (A) Primary hippocampal neurons derived from Mdga2^ +/− (Het) mice and their wild-type (WT) littermates at DIV 7 were treated with different doses of BDNF for 30 min. Equal amounts of protein lysates were subjected to immunoprecipitation (IP) with an anti-TrkB antibody, followed by immunoblotting with an anti-phosphotyrosine (pTyr) antibody or the anti-TrkB antibody. The pTyr levels were quantified by densitometry, normalized to total TrkB levels, and then compared to those of WT controls. n = 3 per group. (B) WT mouse brain lysates were subjected to IP with an anti-MDGA2 antibody and a control IgG, and immunoblotted (IB) for the components indicated. mBDNF, mature BDNF; ImBDNF, immature BDNF. (C) Hippocampal neurons from WT mice at DIV 7 were immunostained with antibodies against MDGA2 (red) and TrkB (green), and then counter-stained with DAPI (blue). Images were acquired by a confocal microscope. Scale bar: 10 μm. (D) Surface plasmon resonance (SPR) analysis of the binding between recombinant MDGA2 protein and recombinant TrkB protein. TrkB was immobilized on a Biacore CM5 chip and tested for its binding with MDGA2 at the concentrations indicated. (E) Computer simulation of the binding mode of TrkB and MDGA2. The predicted binding domain of TrkB (the d5 domain) is highlighted by a red square and labeled in brown. The predicted binding domain of MDGA2 (the MAM domain) is highlighted by a red square and labeled in yellow. […] Immunoprecipitated TrkB levels were quantified by densitometry, normalized to input levels, and compared to respective controls (set to one arbitrary units). n = 3 per group. […] Levels of phosphorylated proteins were quantified by densitometry, normalized to respective total protein levels and compared to controls (set to one arbitrary units). n = 6 per group. […] P-values were determined by two-tailed unpaired Student t-test in (A) and one-way ANOVA with Tukey’s multiple comparisons test in (H, I, J). *p < 0.05, **p < 0.01, ***p < 0.001, ns: not significant. […]

B1: MDGA2-ΔM1: MDGA2 lacking the N-terminal region (aa 746–833) of MAM domain (protein)
chain: PPTVRIVHSGLACNIEEERYSERVYTIREGETLELTCLVTGHPRPQIRWTKTAGSASDRFQDSSVFNETLRITNIQRHQGGRYYCKAENGLGSPAIKSIRVDVYYLDDPVVTVHQSIGEAKEQFYYERTVFLRCVANSNPPVRYSWRRGQEVLLQGSDKGVEIYEPFFTQGETKILKLKNLRPQDYANYSCIASVRNVCNIPDKMVSFRLSNKTASPSIKLLVDDPIVVNPGEAITLVCVTTGGEPAPSLTWVRSFGTLPEKTVLNGGTLTIPAITSDDAGTYSCIANNNVGNPAKKSTNIIVRALKKGRFWITPDPYHKDDNIQIGREVKISCQVEAVPSEELTFSWFKNGRPLRSSERMVITQTDPDVSPGTTNLDIIDLKFTDFGTYTCVASLKGGGISDISIDVNISSSTVPPNLTVPQEKSPLVTREGDTIELQCQVTGKPKPIILWSRADKEVAMPDGSMQMESYDGTLRIVNVSREMSGMYRCQTSQYNGFNVKPREALVQLIVQYPPAVEPAFLEIRQGQDRSVTMSCRVLRAYPIRVLTYEWRLGNKLLRTGQFDSQEYTEYAVKSLSNENYGVYNCSIINEAGAGRCSFLVTGKAYAPEFYYDTYNPVWQNRHRVYSYSLQWTQMNPDAVDRIVAYRLGIRQAGQQRWWEQEIKINGNIQKGELITYNLTELIKPEAYEVRLTPLTKFGEGDSTIRVIKYSAPVNPHLREAYCFSFFYHMYGQHIGVLNVYLRLKGQTTIENPLWSSSGNKGQRWNEAHVNIYPITSFQLIFEGIRGPGIEGDIAIDDVSIAEGECAKQDLATKNSVD
modifications: left off: GFP, end not stated, kept
notes: MDGA2 lacking the N-terminal region (aa 746–833) of MAM domain
With B1, the “interaction with TrkB (Co-IP)” value was “abolished the interaction between MDGA2 and TrkB”.

B2: MDGA2-ΔM2: MDGA2 lacking the C-terminal region (aa 834–921) of MAM domain (protein)
chain: PPTVRIVHSGLACNIEEERYSERVYTIREGETLELTCLVTGHPRPQIRWTKTAGSASDRFQDSSVFNETLRITNIQRHQGGRYYCKAENGLGSPAIKSIRVDVYYLDDPVVTVHQSIGEAKEQFYYERTVFLRCVANSNPPVRYSWRRGQEVLLQGSDKGVEIYEPFFTQGETKILKLKNLRPQDYANYSCIASVRNVCNIPDKMVSFRLSNKTASPSIKLLVDDPIVVNPGEAITLVCVTTGGEPAPSLTWVRSFGTLPEKTVLNGGTLTIPAITSDDAGTYSCIANNNVGNPAKKSTNIIVRALKKGRFWITPDPYHKDDNIQIGREVKISCQVEAVPSEELTFSWFKNGRPLRSSERMVITQTDPDVSPGTTNLDIIDLKFTDFGTYTCVASLKGGGISDISIDVNISSSTVPPNLTVPQEKSPLVTREGDTIELQCQVTGKPKPIILWSRADKEVAMPDGSMQMESYDGTLRIVNVSREMSGMYRCQTSQYNGFNVKPREALVQLIVQYPPAVEPAFLEIRQGQDRSVTMSCRVLRAYPIRVLTYEWRLGNKLLRTGQFDSQEYTEYAVKSLSNENYGVYNCSIINEAGAGRCSFLVTGKAYAPEFYYDTYNPVWQNRHRVYSYSLQWTQMNPDAVDRIVAYRLGIRQAGQQRWWEQEIKINGNIQKGELITYNLTELIKPEAYEVRLTPLTKFGEGDSTIRVIKYSAPVNPHLREFHCGFEDGNICLFTQDDTDNFDWTKQSTATRNTKYTPNTGPNADRSGSKEGFYMYIETSRPRLEGEKARLLSPVFSIAPKNPYGPTNTQDLATKNSVD
modifications: left off: GFP, end not stated, kept
notes: MDGA2 lacking the C-terminal region (aa 834–921) of MAM domain
With B2, the “interaction with TrkB (Co-IP)” value is “not M2 abolished the interaction”.
